Target: T1, mCherry-α-catenin (UniProt P26231 1-906)
T1 construct: Monomeric pool from gel filtration; source: E. coli CK600K or BL21-DE3 Star, purified (Glutathione Sepharose, TEV protease cleavage, gel filtration; the monomeric pool was collected); not shown: GST (from the vector pGEX-2T); mCherry, N-terminal, kept
T1 sequence (looked up): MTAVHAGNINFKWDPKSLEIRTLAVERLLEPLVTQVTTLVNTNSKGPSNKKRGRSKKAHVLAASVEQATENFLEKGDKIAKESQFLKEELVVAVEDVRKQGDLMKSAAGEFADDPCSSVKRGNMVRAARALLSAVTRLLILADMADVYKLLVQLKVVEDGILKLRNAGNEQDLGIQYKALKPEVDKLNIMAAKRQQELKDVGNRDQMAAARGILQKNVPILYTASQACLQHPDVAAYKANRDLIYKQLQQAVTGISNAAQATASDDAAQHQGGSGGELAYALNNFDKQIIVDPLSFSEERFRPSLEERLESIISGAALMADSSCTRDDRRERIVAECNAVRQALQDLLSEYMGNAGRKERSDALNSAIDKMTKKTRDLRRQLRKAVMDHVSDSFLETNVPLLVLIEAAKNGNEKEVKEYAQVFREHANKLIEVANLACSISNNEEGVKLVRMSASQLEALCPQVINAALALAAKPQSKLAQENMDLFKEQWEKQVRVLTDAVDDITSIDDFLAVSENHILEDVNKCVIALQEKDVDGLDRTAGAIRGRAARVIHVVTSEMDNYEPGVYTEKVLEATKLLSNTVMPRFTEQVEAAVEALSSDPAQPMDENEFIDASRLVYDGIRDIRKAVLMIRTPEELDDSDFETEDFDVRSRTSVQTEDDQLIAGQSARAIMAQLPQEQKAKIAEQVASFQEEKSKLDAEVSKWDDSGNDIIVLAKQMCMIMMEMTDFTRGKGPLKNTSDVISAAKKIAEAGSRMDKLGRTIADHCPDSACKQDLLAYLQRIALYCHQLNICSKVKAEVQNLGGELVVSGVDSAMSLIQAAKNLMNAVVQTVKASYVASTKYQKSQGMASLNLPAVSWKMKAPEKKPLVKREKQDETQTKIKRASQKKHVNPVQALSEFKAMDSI
Test: droplet co-partition assay (confocal microscopy); purified fluorescent proteins mixed at equimolar 1 μM with mEGFP-β-catenin (Wt or IDRs*) in droplet formation buffer (50 mM Tris-HCl pH 7.5, 125 mM NaCl, 10% glycerol, 1 mM DTT); droplets induced with 10% PEG-8000; fluorescence inside β-catenin droplets
Details: both partners purified

B1: mEGFP-β-catenin^Wt (natural protein, UniProt P35222 1-781, looked up)
chain: MATQADLMELDMAMEPDRKAAVSHWQQQSYLDSGIHSGATTTAPSLSGKGNPEEEDVDTSQVLYEWEQGFSQSFTQEQVADIDGQYAMTRAQRVRAAMFPETLDEGMQIPSTQFDAAHPTNVQRLAEPSQMLKHAVVNLINYQDDAELATRAIPELTKLLNDEDQVVVNKAAVMVHQLSKKEASRHAIMRSPQMVSAIVRTMQNTNDVETARCTAGTLHNLSHHREGLLAIFKSGGIPALVKMLGSPVDSVLFYAITTLHNLLLHQEGAKMAVRLAGGLQKMVALLNKTNVKFLAITTDCLQILAYGNQESKLIILASGGPQALVNIMRTYTYEKLLWTTSRVLKVLSVCSSNKPAIVEAGGMQALGLHLTDPSQRLVQNCLWTLRNLSDAATKQEGMEGLLGTLVQLLGSDDINVVTCAAGILSNLTCNNYKNKMMVCQVGGIEALVRTVLRAGDREDITEPAICALRHLTSRHQEAEMAQNAVRLHYGLPVVVKLLHPPSHWPLIKATVGLIRNLALCPANHAPLREQGAIPRLVQLLVRAHQDTQRRTSMGGTQQQFVEGVRMEEIVEGCTGALHILARDVHNRIVIRGLNTIPLFVQLLYSPIENIQRVAAGVLCELAQDKEAAEAIEAEGATAPLTELLHSRNEGVATYAAAVLFRMSEDKPQDYKKRLSVELTSSLFRTEPMAWNETADLGLDIGAQGEPLGYRQDDPSYRSFHSGGYGQDALGMDPMMEHEMGGHHPGADYPVDGLPDLGHAQDLMDGLPPGDSNQLAWFDTDL
notes: also called mEGFP-β-cat^Wt; source: E. coli CK600K or BL21-DE3 Star, purified (Glutathione Sepharose, TEV protease cleavage, gel filtration); not shown: GST (from the vector pGEX-2T); mEGFP, N-terminal, kept
binding result: binds

— paper PMC12783686, “β-catenin condensation facilitates clustering of the cadherin/catenin complex and formation of nascent cell-cell junctions” (Nature Communications, 2025)
